Measurements from PMC12109740, “Modulation of Kv Channel Gating by Light-Controlled Membrane Thickness” (Biomolecules, 2025).

Target: the molecule itself
Experiment: SEC; Superdex 200 Increase 10/300 GL, 100 mM KCl, 25 mM Tris pH 8.0, in detergent (DM by the methods, DDM by the results); peak at 11 mL

B1: KvAP wild type (voltage-gated potassium channel from Aeropyrum pernix) (natural protein)
chain: GGRVRNIGDVMEHPLVELGVSYAALLSVIVVVVEYTMQLSGEYLVRLYLVDLILVIILWADYAYRAYKSGDPAGYVKKTLYEIPALVPAGLLALIEGHLAGLGLFRLVRLLRFLRILLIISRGSKFLSAIADAADKIRFYHLFGAVMLTVLYGAFAIYIVEYPDPNSSIKSVFDALWWAVVTATTVGYGDVVPATPIGKVIGIAVMLTGISALTLLIGTVSNMFQKILVGEPEPSCSPAKLAEMVSSMSEEEFEEFVRTLKNLRRLENSMK
notes: KvAP, voltage-gated potassium channel of Aeropyrum pernix, wild type; also called Kv channel from Aeropyrum pernix; source: E. coli C43 (DE3), pET21a-derived vector, solubilised in detergent, purified (Ni-NTA, SEC on Superdex 200 Increase)
Q: B1 was tested. Which “stoichiometry N” value did it give?
A: 4
